According to article PMC2111050, “Human RECQ1 Is a DNA Damage Responsive Protein Required for Genotoxic Stress Resistance and Suppression of Sister Chromatid Exchanges” (PLoS ONE, 2007):

Molecular target: T1, Recombinant human RECQ1 helicase (human, UniProt P46063 1-649)
T1 construct: RECQ1 (RECQL) helicase, human; the gene encodes a 649 amino acid protein of 73 kDa; also called RECQL
T1 sequence (looked up): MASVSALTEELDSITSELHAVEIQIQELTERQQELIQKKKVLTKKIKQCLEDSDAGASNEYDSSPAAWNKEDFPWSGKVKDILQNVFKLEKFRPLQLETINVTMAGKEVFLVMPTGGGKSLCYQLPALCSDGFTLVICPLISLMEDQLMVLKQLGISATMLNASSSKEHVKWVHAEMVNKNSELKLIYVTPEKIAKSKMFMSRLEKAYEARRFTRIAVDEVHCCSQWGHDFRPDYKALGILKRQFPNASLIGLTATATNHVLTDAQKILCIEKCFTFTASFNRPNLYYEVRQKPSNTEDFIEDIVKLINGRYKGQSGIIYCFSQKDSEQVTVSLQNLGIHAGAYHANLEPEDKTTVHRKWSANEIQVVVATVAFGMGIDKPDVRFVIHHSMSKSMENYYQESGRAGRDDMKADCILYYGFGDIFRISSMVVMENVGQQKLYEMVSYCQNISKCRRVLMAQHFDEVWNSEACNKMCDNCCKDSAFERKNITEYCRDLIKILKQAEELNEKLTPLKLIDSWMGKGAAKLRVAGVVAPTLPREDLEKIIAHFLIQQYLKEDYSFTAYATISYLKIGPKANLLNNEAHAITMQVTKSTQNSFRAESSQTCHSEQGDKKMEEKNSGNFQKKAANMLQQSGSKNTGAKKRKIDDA
Experiment: ELISA; RECQ1 (14 nM; 1 ng/µl, 50 µl) or BSA coated on wells in carbonate buffer pH 9.6; Rad51 0-76 nM in PBS, 0.5% Tween-20, 3% BSA, 1 h at 30°C; detected with rabbit anti-Rad51; Scatchard analysis, apparent Kd; similar signal with DNaseI (100 U/ml) or EtBr (50 µg/ml)
Details: both partners purified

Kd: 11.9 ± 2.1 nM
B1: Purified recombinant human Rad51 (natural protein, UniProt Q06609 1-339, looked up)
chain: MAMQMQLEANADTSVEEESFGPQPISRLEQCGINANDVKKLEEAGFHTVEAVAYAPKKELINIKGISEAKADKILAEAAKLVPMGFTTATEFHQRRSEIIQITTGSKELDKLLQGGIETGSITEMFGEFRTGKTQICHTLAVTCQLPIDRGGGEGKAMYIDTEGTFRPERLLAVAERYGLSGSDVLDNVAYARAFNTDHQTQLLYQASAMMVESRYALLIVDSATALYRTDYSGRGELSARQMHLARFLRMLLRLADEFGVAVVITNQVVAQVDGAAMFAADPKKPIGGNIIAHASTTRLYLRKGRGETRICKIYDSPCLPEAEAMFAINADGVGDAKD
notes: Rad51 strand exchange protein, human; source: provided by Dr. Ian Hickson (Cancer Research UK Laboratories); purified recombinant
